B1: IdeE combinatorial mutant E97D_del18 (protein)
chain: ITSVWTKGVTPLTPEQFRYNNEDVIHAPYLAHQGWYDITKAFDGKDNLLCGAATAGNMLHWWFDQNKTEIEAYLSKHPDKQKIIFNNQELFDLKAAIDTKDSQTNSQLFNYFRDKAFPNLSARQLGVMPDLVLDMFINGYYLNVFKTQSTDVNRPYQDKDKRGGIFDAVFTRGDQTTLLTARHDLKNKGLNDISTIIKQELTEGRALALSHTYANVSISHVINLWGADFNAEGNLEAIYVTDSDANASIGMKKYFVGINAHRHVAISAKKIEGENIGAQVLGLFTLSSGKDIWQKLSHHHHHH

What was measured:
trastuzumab = experiment: cell-based or functional assay
[1] = target: IgG in the sera of rabbits
[2] = target: rabbit IgG (rabbit polyclonal IgG antibody 1 and 2)
[3] = target: IgG in the sera of monkeys
[4] = target: IgG1 in the sera of humans
[5] = target: human IVIg (an intravenous human immunoglobulin)

Row | Molecule | Fold of activity relative to wild-type (ELISA-based human IgG1 cleavage) (trastuzumab) [fold] | activity of cleaving human IgG1 relative to wild-type IdeE (SDS-PAGE) (trastuzumab) [fold] | further results
1 | IdeE mutant T8Y (enzyme) | 2.3 | – | –
2 | IdeE mutant T24S (enzyme) | 2.18 | – | –
3 | IdeE mutant A59V (enzyme) | 2.68 | 2 | –
4 | IdeE mutant A59L (enzyme) | 2.41 | 2 | –
5 | IdeE mutant A59I (enzyme) | 2.31 | – | –
6 | IdeE mutant A10R (enzyme) | 2.2 | – | –
7 | IdeE mutant R280H (enzyme) | 2.3 | 2 | –
8 | IdeE mutant R280K (enzyme) | 2.2 | – | –
9 | IdeE mutant T24G (enzyme) | 2.09 | – | –
10 | IdeE mutant A10K (enzyme) | 1.99 | – | –
11 | IdeE mutant T8W (enzyme) | 2.58 | 2 | –
12 | IdeE C-terminal truncated mutant WT_delC10 (enzyme) | – | – | cleavage activity on human IgG1 relative to wild-type IdeE (SDS-PAGE) (trastuzumab): > 2 fold
13 | IdeE mutant E97D (enzyme) | 2 | 2 | –
14 | IdeE mutant T8E (enzyme) | 2.09 | – | –
15 | IdeE mutant T24A (enzyme) | 2.23 | 2 | –
16 | IdeE mutant T8D (enzyme) | 2.21 | 2 | –
17 | IdeE C-terminal truncated mutant WT_delC5 (enzyme) | – | – | cleavage activity on human IgG1 relative to wild-type IdeE (SDS-PAGE) (trastuzumab): > 2 fold
18 | B1 | – | – | cleavage in mouse serum in vitro (SDS-PAGE, 25 kD Fc fragment) (IgG in the sera of mice): has very low or no activity of cleaving IgG1 in the sera of mice; cleavage of serum IgG of different species (SDS-PAGE) (IgG in the sera of mice): IgG in the sera of rats and mice was nearly uncleaved; cleavage of serum IgG of different species (SDS-PAGE) (IgG in the sera of pigs): IgG in the sera of pigs was cleaved more effectively; cleavage of serum IgG of different species (SDS-PAGE) [1]: IgG in the sera of rabbits was cleaved most effectively; cleavage of immunoglobulins of different species (SDS-PAGE) [2]: E97D_del18 can effectively cleave ... rabbit IgG; cleavage of serum IgG of different species (SDS-PAGE) (IgG in the sera of rats): IgG in the sera of rats and mice was nearly uncleaved; cleavage of serum IgG of different species (SDS-PAGE) [3]: E97D_del18 can effectively cleave IgG in the sera of rabbits, dogs and monkeys; cleavage of immunoglobulins of different species (SDS-PAGE) (dog IgG): E97D_del18 can effectively cleave dog IgG; cleavage of serum IgG of different species (SDS-PAGE) (dog IgG): E97D_del18 can effectively cleave IgG in the sera of rabbits, dogs and monkeys; cleavage in human serum in vitro (SDS-PAGE, 25 kD Fc fragment) [4]: E97D_del18 can effectively and specifically cleave IgG1 in the sera of humans; cleavage of human IVIg in mouse serum and plasma in vitro (SDS-PAGE) [5]: E97D_del18 can effectively cleave human IVIg in both the sera and plasmas of mice

From patent US20230364207A1
